How the values were obtained:
H9C2 cardiac myoblasts = test: Annexin V/PI staining of H2O2 induced apoptosis; assay type: cell-based, rat; details: 10 nM, 30 min pre-incubation, 100 μM H2O2 2 h
Method: FIG. 2A is a bar graph showing % apoptosis. H9C2 cardiac myoblasts were pre-incubated ±10 nM of HASF recombinant protein for 30 min, and then challenged with 100 μM of H2O2 for 2 h. Apoptosis was quantified on a flow cytometer with Annexin V and Propidium Iodine (PI) staining. The sum of Annexin V positive cells+Annexin V/PI double positive cells is presented as percentage (%) of total cells. Human recombinant IGF protein was used as a positive control.
Rat cardiac myoblasts-H9C2 cells were obtained from ATCC and cultured in DMEM medium containing 10% of FBS, supplemented with 2 mM of L-glutamine, 100 U/ml of penicillin and 100 μg/ml of streptomycin (Invitrogen). Cells were seeded one day before at 1×10^5/well in 6-well plates. The following day, the cells were treated for 30 min with 10 nM of HASF the recombinant protein, the MBP or PBS were used as controls. Then the cells were challenged with 100 μM of H2O2 for 2 h. The attached and floating cells were collected. H2O2 induced apoptosis was then analyzed on a flow cytometer for Annexin V/Propidium Iodine double staining with the Vybrant Apoptosis Assay Kit #2 (Invitrogen).

[1] = tested on: primary embryonic rat neurons; test: Caspase 9 assay in H2O2 challenged primary neurons; assay type: cell-based; details: H2O2 (50 μM) 30 min
Method: FIG. 2E is a bar graph showing caspase activity in primary neurons. Embryonic rat neuronal cells were pre-incubated ±100 nM of HASF recombinant protein for 30 min, and then challenged with 200 μM of H2O2 […]. Apoptosis was determined by caspase 9 levels. The results from two independents experiments are shown. ** P<0.01. Data are presented as means±standard deviation of triplicates.
FIG. 4E is a bar graph showing relative caspase activity in primary neurons. Apoptosis as determined by detection of Caspase-9 activity on primary neuron pre-treated with 178 μM PKC translocation inhibitor peptide for 10 minutes and then with 100 nM of HASF for 30 minutes. Thereafter, cells were challenged with 200 μM H2O2 for 3 hours. All samples were measured in replicas N-4 and the experiments was repeated twice. *P<0.05 vs. non-HASF treated cells.
Embryonic rat cortex tissue was purchased from Neuromics (Edina, Minn.). Primary neurons were isolated, cultured on poly-D-lysine coated glass slides according to provided instructions and allowed to grow for 5 days in complete neurobasal media. Cells were treated with PKC-epsilon inhibitor and recombinant protein HASF as described above for cardiomyocytes). For induction of stress the cells were challenged with H202 (50 μM) for 30 min followed by 3 hours of recovery at 37° C. […]

[2] = tested on: PKC, Raf, ERK 1/2, PDK1 phosphorylation in adult rat cardiomyocytes; test: Western blot analysis of signaling protein phosphorylation (PKC/ERK pathway); assay type: cell-based
Method: FIG. 3A is a photograph of an electrophoretic gel. HASF activates the PKC pathway. A. Western blots analysis for various signaling proteins. Serum-starved adult rat cardiomyocytes were stimulated with 100 nM HASF recombinant protein for various time courses. Cell lysate was collected and the proteins were resolved by SDS-PAGE. Insulin from bovine pancreas was used as a positive control. min: minutes of treatment.
FIG. 3B is a photograph of an immunoblot. Serum-starved adult rat cardiomyocytes were pre-treated with 3 μM PKC inhibitors BIM, Gö6976, or Gö6983 for 30 minutes, then stimulated with 100 nM HASF recombinant protein for 5-10 min and cells were harvested. Total cell lysates were used to analyze the levels of ERK1/2 phosphorylation by western blot analysis.
FIG. 4A is a photograph of an immunoblot. Western blot analysis for PKC E and PKC delta phosphorylation on total cell lysates from serum-starved adult rat cardiomyocytes stimulated with 100 nM HASF recombinant protein at 5 and 30 min. HASF b1 and b2 represent different batches of recombinant protein. PMA was used as positive control.
FIG. 4B is a photograph of an immunoblot. Western blot analysis for ERK1/2 phosphorylation on total cell lysates from adult rat cardiomyocytes pre-treated with 10 pM PKC epsilon translocation inhibitor peptide for 20 min, then 100 nM HASF recombinant protein was added for 5 min or 10 min.
FIGS. 8A-B are photographs of immunoblots. Western blot analysis for PKC a/b and PKC theta phosphorylation on total cell lysates from serum-starved adult rat cardiomyocytes stimulated with 100 nM HASF recombinant protein for the indicated times. HASF batch 1 and 2 represent different batches of recombinant protein. PMA was used as positive control.
Rabbit polyclonal antibodies for phospho-pan PKC, phospho-ERK1/2, phospho-raf, phosphor-PDK1, total Akt were obtained from Cell Signaling Tech. Rabbit polyclonal antibody for phospho-PKC epsilon, phospho-Bad, and GAPDH was obtained from Abeam. HRP-conjugated goat anti-rabbit secondary antibody was obtained from Cell Signaling Tech.

[3] = tested on: rat myocardial infarction; test: In vivo ischemia/reperfusion injury, infarct size (TTC/Evans Blue); details: 1 μg intramyocardial injection, 30 min ischemia, 24 h reperfusion
Method: FIG. 5A is a series of photographs and a bar graph showing infarct area. Rats were randomly divided into PBS control group and HASF injected group, n=10 for each group. The reperfusion injury model was achieved by 30 min coronary ligation with the immediate injection of vehicle PBScontrol or 1 μg of […] recombinant protein into the myocardium area below ligation suture, followed by loosening of the ligation suture to achieve reperfusion injury. […] The mean of % of infarct area for all sections of each heart was calculated blindly for comparisons using ImageJ computer software. Representative photos from each group are shown.
Female Sprague-Dawley rats were used for all in vivo experiments. A midsternal thoracotomy was performed to expose the anterior surface of the heart after anesthesia. […]
For analysis of infarct size, 24 h after reperfusion, the LAD was re-ligated and ˜300 μl of 1% Evans Blue in PBS (pH 7.4) was retrogradely infused into the heart in a 2-3 min period to delineate the non-ischemic area. […] Area at risk (AAR) was calculated as the left ventricular total area excluding Evans Blue dye positive area, and % infarct area was calculated as the % of infarct area/AAR. The mean of % of infarct area for all sections of each heart was calculated blindly for comparisons using ImageJ computer software, with 10 rats in each group.

[4] = 100 nM, within 5-10 minutes of treatment

B1: HASF: Hypoxia regulated Akt MSC Factor, secreted protein encoded by C3orf58; recombinant human protein without N-signal sequence, SEQ ID NO:1 or 2 (protein, UniProt Q8NDZ4 36-430, looked up)
Divergent protein kinase …: LASWQRNELTDRRFLQLNKCPACFGTSWCRRFLNGQVVFEAWGRLRLLDFLNVKNVYFAQYGEPREGGRRRVVLKRLGSQRELAQLDQSICKRATGRPRCDLLQAMPRTEFARLNGDVRLLTPEAVEGWSDLVHCPSQRLLDRLVRRYAETKDSGSFLLRNLKDSERMQLLLTLAFNPEPLVLQSFPSDEGWPFAKYLGACGRMVAVNYVGEELWSYFNAPWEKRVDLAWQLMEIAEQLTNNDFEFALYLLDVSFDNFAVGPRDGKVIIVDAENVLVADKRLIRQNKPENWDVWYESKFDDCDKEACLSFSKEILCARATVDHNYYAVCQNLLSRHATWRGTSGGLLHDPPSEIAKDGRLEALLDECANPKKRYGRFQAAKELREYLAQLSNNVR
modifications: 6xHis tag
H9C2 cardiac myoblasts
  decrease of H2O2 induced apoptosis (Annexin V/PI staining): ~50%
[1]; 30 min pretreatment, P<0.05
  attenuation of Caspase 9 levels: 20-40%
[1]; HASF 30 min
  Caspase 9 levels in challenged neuronal cells: significantly reduced
[2]; 100 nM HASF
  activity (phosphorylation) of the other PKC isoforms tested (PKC α/β, σ, σ/λ, θ): did not affect
[2]; 100 nM HASF, 5 and 30 min
  phosphorylation of PKCe: increased the phosphorylation of PKCe selectively
[2]; 100 nM, 0-60 minutes
  phosphorylation of PDK1: not increased
[2]; [4]
  phosphorylation of ERK 1/2: increased dramatically
  phosphorylation of PKC: increased dramatically
  phosphorylation of Raf: increased dramatically
[3]
  reduction in the infarct size: ~58%

Source: patent US20120172306A1, “Use of HASF as a Protective Agent Against Ischemic Tissue Damage” (Duke University, priority 2009, published 2012)
